Results published in IntAct's records for PubMed 31515488.

B1: Nucleoporin p54 (Homo sapiens), Q7Z3B4 (parent)
chain: MAFNFGAPSGTSGTAAATAAPAGGFGGFGTTSTTAGSAFSFSAPTNTGTTGLFGGTQNKGFGFGTGFGTTTGTSTGLGTGLGTGLGFGGFNTQQQQQTTLGGLFSQPTQAPTQSNQLINTASALSAPTLLGDERDAILAKWNQLQAFWGTGKGYFNNNIPPVEFTQENPFCRFKAVGYSCMPSNKDEDGLVVLVFNKKETEIRSQQQQLVESLHKVLGGNQTLTVNVEGTKTLPDDQTEVVIYVVERSPNGTSRRVPATTLYAHFEQANIKTQLQQLGVTLSMTRTELSPAQIKQLLQNPPAGVDPIIWEQAKVDNPDSEKLIPVPMVGFKELLRRLKVQDQMTKQHQTRLDIISEDISELQKNQTTSVAKIAQYKRKLMDLSHRTLQVLIKQEIQRKSGYAIQADEEQLRVQLDTIQGELNAPTQFKGRLNELMSQIRMQNHFGAVRSEERYYIDADLLREIKQHLKQQQEGLSHLISIIKDDLEDIKLVEHGLNETIHIRGGVFS
B2: Oxidative stress-induced growth inhibitor 1 (Homo sapiens), Q9UJX0 (parent)
chain: MSSSRKDHLGASSSEPLPVIIVGNGPSGICLSYLLSGYTPYTKPDAIHPHPLLQRKLTEAPGVSILDQDLDYLSEGLEGRSQSPVALLFDALLRPDTDFGGNMKSVLTWKHRKEHAIPHVVLGRNLPGGAWHSIEGSMVILSQGQWMGLPDLEVKDWMQKKRRGLRNSRATAGDIAHYYRDYVVKKGLGHNFVSGAVVTAVEWGTPDPSSCGAQDSSPLFQVSGFLTRNQAQQPFSLWARNVVLATGTFDSPARLGIPGEALPFIHHELSALEAATRVGAVTPASDPVLIIGAGLSAADAVLYARHYNIPVIHAFRRAVDDPGLVFNQLPKMLYPEYHKVHQMMREQSILSPSPYEGYRSLPRHQLLCFKEDCQAVFQDLEGVEKVFGVSLVLVLIGSHPDLSFLPGAGADFAVDPDQPLSAKRNPIDVDPFTYQSTRQEGLYAMGPLAGDNFVRFVQGGALAVASSLLRKETRKPP
B3: Iron-sulfur cluster co-chaperone protein HscB (Homo sapiens), Q8IWL3 (parent)
chain: MWRGRAGALLRVWGFWPTGVPRRRPLSCDAASQAGSNYPRCWNCGGPWGPGREDRFFCPQCRALQAPDPTRDYFSLMDCNRSFRVDTAKLQHRYQQLQRLVHPDFFSQRSQTEKDFSEKHSTLVNDAYKTLLAPLSRGLYLLKLHGIEIPERTDYEMDRQFLIEIMEINEKLAEAESEAAMKEIESIVKAKQKEFTDNVSSAFEQDDFEEAKEILTKMRYFSNIEEKIKLKKIPL
B4: Proto-oncogene serine/threonine-protein kinase mos (Homo sapiens), P00540 (parent)
chain: MPSPLALRPYLRSEFSPSVDARPCSSPSELPAKLLLGATLPRAPRLPRRLAWCSIDWEQVCLLQRLGAGGFGSVYKATYRGVPVAIKQVNKCTKNRLASRRSFWAELNVARLRHDNIVRVVAASTRTPAGSNSLGTIIMEFGGNVTLHQVIYGAAGHPEGDAGEPHCRTGGQLSLGKCLKYSLDVVNGLLFLHSQSIVHLDLKPANILISEQDVCKISDFGCSEKLEDLLCFQTPSYPLGGTYTHRAPELLKGEGVTPKADIYSFAITLWQMTTKQAPYSGERQHILYAVVAYDLRPSLSAAVFEDSLPGQRLGDVIQRCWRPSAAQRPSARLLLVDLTSLKAELG
partner: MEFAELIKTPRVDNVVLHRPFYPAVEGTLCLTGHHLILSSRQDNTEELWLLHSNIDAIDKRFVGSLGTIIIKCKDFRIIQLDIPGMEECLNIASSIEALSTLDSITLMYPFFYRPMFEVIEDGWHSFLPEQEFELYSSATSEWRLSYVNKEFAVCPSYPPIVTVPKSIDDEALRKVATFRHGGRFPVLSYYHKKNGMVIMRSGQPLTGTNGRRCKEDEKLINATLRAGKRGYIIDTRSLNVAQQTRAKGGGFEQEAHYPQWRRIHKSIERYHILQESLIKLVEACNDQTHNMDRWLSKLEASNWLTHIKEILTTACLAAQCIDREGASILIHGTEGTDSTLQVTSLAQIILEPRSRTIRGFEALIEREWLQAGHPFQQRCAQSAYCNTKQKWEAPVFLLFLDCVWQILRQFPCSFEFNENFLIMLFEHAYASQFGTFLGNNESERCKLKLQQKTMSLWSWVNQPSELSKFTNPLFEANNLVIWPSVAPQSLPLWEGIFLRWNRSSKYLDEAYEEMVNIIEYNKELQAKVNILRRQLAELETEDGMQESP
B5: Protein FAM9B (Homo sapiens), Q8IZU0 (parent)
chain: MAAWGKKHAGKDPVRDECEERNRFTETREEDVTDEHGEREPFAETDEHTGANTKKPEDTAEDLTAKRKRMKMDKTCSKTKNKSKHALRKKQLKRQKRDYIHSLKLLNVLEEYITDEQKEEEEEEGEEEELIRIFQEQQKKWQQYRSVRRERLKEMKLLRDQFVKALEDFEDLCDRVFSDEDSELDN
B6: Protein FAM9B (Homo sapiens), Q8IZU0 (parent)
chain: B5 chain
partner: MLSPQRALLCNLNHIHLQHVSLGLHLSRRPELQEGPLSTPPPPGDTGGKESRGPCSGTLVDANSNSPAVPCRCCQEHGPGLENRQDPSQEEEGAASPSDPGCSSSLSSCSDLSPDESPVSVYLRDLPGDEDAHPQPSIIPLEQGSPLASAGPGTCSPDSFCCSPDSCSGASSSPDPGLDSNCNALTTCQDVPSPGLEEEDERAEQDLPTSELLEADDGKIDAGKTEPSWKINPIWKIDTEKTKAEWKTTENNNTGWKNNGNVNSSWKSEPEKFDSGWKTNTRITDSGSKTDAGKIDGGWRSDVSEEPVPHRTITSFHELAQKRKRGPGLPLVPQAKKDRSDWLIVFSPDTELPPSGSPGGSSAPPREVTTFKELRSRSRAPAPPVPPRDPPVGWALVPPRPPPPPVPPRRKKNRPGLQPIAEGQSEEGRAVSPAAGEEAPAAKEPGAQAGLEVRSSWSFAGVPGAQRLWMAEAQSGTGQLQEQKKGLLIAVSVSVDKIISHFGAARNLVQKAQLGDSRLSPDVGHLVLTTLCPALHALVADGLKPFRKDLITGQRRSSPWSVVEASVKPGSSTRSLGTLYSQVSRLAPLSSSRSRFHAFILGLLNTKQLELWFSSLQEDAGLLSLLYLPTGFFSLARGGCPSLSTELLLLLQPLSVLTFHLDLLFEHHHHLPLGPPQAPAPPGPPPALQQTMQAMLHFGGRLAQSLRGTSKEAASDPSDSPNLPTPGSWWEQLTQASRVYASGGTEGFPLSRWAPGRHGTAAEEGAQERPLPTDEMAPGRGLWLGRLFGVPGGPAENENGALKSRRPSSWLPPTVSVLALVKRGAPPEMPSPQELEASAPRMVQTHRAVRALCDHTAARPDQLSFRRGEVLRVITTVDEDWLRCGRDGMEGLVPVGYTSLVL

Variants of: B1
Conditions: with nup62_human NUP62, P37198
nup62_human NUP62, P37198, sequence (P37198 whole entry): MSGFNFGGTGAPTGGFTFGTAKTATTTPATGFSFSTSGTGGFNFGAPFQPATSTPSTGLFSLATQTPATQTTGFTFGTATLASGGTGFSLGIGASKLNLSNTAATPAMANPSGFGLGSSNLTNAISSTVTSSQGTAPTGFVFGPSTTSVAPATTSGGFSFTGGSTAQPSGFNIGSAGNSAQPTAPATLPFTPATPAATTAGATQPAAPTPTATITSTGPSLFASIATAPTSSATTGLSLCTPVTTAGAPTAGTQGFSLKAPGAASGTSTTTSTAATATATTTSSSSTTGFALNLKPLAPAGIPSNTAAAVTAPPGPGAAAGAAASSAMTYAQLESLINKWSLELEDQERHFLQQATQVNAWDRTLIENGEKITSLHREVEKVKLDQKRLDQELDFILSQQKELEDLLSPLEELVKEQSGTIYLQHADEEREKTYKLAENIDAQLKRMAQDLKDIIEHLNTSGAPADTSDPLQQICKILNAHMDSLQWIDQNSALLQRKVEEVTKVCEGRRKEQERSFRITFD

| effect of a mutation on the interaction | Variant |
| --- | --- |
| with no effect | N250S |
| with no effect | R385K |

Variants of: B1
Conditions: with nup58_human NUP58, Q9BVL2
nup58_human NUP58, Q9BVL2, sequence (Q9BVL2 whole entry): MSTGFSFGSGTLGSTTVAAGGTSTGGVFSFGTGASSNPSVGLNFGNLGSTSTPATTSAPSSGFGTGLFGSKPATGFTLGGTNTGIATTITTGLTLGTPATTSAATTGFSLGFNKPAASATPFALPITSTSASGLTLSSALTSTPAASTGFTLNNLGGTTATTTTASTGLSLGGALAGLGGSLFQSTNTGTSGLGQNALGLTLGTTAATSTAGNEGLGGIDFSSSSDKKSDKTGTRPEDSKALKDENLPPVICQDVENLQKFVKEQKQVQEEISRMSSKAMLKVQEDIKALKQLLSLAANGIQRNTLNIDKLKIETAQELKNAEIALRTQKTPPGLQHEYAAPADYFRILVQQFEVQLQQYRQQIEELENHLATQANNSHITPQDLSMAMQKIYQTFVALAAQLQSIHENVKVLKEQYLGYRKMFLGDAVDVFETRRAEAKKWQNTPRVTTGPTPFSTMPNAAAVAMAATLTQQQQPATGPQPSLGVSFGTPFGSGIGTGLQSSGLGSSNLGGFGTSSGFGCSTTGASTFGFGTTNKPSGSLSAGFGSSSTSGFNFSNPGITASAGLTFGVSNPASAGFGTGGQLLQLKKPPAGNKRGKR

| effect of a mutation on the interaction | Variant |
| --- | --- |
| with no effect | N250S |
| with no effect | R385K |

Variants of: B1
Conditions: with hgs_human HGS

| effect of a mutation on the interaction | Variant |
| --- | --- |
| with no effect | N250S |
| with no effect | R385K |

Variants of: B1
Conditions: with KRT15, P19012
KRT15, P19012, sequence (P19012 whole entry): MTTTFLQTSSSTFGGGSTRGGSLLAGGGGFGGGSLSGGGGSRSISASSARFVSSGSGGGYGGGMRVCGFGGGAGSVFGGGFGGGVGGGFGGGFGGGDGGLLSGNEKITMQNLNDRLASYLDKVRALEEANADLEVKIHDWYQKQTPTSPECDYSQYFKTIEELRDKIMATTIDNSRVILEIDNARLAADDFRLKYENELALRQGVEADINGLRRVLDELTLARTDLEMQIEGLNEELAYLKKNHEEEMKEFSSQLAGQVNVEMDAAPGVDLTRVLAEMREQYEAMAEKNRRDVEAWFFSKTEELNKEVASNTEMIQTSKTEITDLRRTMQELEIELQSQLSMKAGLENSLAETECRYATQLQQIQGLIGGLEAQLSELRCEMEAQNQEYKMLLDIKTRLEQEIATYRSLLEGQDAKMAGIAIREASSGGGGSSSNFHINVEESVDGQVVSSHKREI

| effect of a mutation on the interaction | Variant |
| --- | --- |
| with no effect | N250S |
| with no effect | R385K |

Variants of: B1
Conditions: with nup58_human NUP58, Q9BVL2
Remark: another data set of the same source

| effect of a mutation on the interaction | Variant |
| --- | --- |
| with no effect | T416A |

Variants of: B1
Conditions: with hgs_human HGS
Remark: another data set of the same source

| effect of a mutation on the interaction | Variant |
| --- | --- |
| with no effect | T416A |

Variants of: B1
Conditions: with nup62_human NUP62, P37198
Remark: another data set of the same source

| effect of a mutation on the interaction | Variant |
| --- | --- |
| with no effect | T416A |

Variants of: B1
Conditions: with KRT15, P19012
Remark: another data set of the same source

| effect of a mutation on the interaction | Variant |
| --- | --- |
| with no effect | T416A |

Variants of: B2
Conditions: with htf4_human TCF12, Q99081
htf4_human TCF12, Q99081, sequence (Q99081 whole entry): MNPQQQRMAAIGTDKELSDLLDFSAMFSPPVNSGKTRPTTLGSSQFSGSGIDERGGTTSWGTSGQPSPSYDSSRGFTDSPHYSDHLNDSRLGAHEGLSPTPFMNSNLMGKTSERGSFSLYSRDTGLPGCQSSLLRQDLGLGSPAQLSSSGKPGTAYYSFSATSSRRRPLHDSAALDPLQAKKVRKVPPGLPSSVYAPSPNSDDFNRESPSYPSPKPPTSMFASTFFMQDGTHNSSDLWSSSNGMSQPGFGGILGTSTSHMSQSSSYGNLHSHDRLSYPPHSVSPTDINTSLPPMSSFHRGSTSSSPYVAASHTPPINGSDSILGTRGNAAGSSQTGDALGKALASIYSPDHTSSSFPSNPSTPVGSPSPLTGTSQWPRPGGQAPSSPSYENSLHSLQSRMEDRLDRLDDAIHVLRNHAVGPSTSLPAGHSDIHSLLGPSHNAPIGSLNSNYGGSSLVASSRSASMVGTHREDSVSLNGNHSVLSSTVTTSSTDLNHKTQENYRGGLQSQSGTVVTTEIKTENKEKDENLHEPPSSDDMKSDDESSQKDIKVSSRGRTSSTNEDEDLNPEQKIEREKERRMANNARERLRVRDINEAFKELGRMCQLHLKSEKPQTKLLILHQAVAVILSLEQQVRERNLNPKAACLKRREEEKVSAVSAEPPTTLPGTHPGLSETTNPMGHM

| effect of a mutation on the interaction | Variant |
| --- | --- |
| with no effect | D320N |
| disrupting interaction strength | S236L |

Variants of: B2
Conditions: with itf2_human TCF4, P15884
itf2_human TCF4, P15884, sequence (P15884 whole entry): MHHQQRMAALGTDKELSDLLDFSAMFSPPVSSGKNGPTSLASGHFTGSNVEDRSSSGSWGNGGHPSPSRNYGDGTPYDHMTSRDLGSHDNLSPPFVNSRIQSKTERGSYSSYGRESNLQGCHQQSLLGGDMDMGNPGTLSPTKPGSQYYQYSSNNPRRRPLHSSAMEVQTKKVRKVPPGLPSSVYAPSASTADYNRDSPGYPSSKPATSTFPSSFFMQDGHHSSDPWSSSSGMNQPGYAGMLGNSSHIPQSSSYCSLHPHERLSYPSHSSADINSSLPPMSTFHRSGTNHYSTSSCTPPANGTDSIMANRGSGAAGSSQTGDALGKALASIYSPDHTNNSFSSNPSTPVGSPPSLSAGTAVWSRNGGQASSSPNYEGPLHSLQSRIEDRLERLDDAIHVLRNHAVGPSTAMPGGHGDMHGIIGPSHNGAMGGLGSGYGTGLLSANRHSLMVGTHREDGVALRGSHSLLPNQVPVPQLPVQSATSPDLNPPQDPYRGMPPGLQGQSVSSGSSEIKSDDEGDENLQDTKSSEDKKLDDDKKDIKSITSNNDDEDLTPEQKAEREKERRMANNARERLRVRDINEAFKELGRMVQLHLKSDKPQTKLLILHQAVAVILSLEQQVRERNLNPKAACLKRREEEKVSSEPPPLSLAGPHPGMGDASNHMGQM

| effect of a mutation on the interaction | Variant |
| --- | --- |
| with no effect | D320N |
| with no effect | S236L |

Variants of: B2
Conditions: with ikzf3_human IKZF3, Q9UKT9
ikzf3_human IKZF3, Q9UKT9, sequence (Q9UKT9 whole entry): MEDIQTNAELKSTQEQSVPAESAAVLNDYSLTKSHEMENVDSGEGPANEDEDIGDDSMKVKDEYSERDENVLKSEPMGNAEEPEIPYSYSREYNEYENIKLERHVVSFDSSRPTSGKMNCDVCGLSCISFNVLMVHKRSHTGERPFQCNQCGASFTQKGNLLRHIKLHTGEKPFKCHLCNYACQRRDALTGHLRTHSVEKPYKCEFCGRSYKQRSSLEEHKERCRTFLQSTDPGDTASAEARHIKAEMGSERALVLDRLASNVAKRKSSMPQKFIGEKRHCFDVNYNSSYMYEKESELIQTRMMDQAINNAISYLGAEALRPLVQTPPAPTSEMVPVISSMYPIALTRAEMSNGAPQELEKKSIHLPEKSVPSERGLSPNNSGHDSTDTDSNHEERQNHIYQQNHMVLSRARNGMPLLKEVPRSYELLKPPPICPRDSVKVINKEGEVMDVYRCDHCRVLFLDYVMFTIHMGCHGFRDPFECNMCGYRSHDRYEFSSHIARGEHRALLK

| effect of a mutation on the interaction | Variant |
| --- | --- |
| with no effect | D320N |
| disrupting interaction strength | S236L |

Variants of: B3
Conditions: with atrap_human AGTRAP

| effect of a mutation on the interaction | Variant |
| --- | --- |
| disrupting interaction strength | I163M |

Variants of: B4
Conditions: with mtmr9_human MTMR9, Q96QG7

| effect of a mutation on the interaction | Variant |
| --- | --- |
| with no effect | I55V |

Variants of: B5
Conditions: with dapk2_human DAPK2, Q9UIK4
dapk2_human DAPK2, Q9UIK4, sequence (Q9UIK4 whole entry, looked up): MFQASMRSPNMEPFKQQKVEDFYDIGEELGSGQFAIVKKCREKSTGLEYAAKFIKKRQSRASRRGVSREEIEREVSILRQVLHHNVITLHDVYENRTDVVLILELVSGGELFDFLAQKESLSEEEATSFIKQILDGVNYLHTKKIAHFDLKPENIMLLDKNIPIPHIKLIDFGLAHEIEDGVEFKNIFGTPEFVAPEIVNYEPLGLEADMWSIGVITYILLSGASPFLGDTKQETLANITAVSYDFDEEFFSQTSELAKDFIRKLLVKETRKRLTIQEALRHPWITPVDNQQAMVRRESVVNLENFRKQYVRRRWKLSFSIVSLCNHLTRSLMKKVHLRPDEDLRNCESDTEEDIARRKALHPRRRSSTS

| effect of a mutation on the interaction | Variant |
| --- | --- |
| with no effect | R23H |

Variants of: B5
Conditions: with tr61b_human TRMT61B

| effect of a mutation on the interaction | Variant |
| --- | --- |
| with no effect | R23H |

Variants of: B5
Conditions: with pin4_human PIN4, Q9Y237
pin4_human PIN4, Q9Y237, sequence (Q9Y237 whole entry): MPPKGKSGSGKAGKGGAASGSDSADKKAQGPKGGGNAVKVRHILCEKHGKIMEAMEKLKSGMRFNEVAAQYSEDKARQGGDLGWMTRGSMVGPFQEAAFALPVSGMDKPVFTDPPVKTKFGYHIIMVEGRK

| effect of a mutation on the interaction | Variant |
| --- | --- |
| with no effect | R23H |

Variants of: B5
Conditions: with cc106_human CCDC106, Q9BWC9
cc106_human CCDC106, Q9BWC9, sequence (Q9BWC9 whole entry): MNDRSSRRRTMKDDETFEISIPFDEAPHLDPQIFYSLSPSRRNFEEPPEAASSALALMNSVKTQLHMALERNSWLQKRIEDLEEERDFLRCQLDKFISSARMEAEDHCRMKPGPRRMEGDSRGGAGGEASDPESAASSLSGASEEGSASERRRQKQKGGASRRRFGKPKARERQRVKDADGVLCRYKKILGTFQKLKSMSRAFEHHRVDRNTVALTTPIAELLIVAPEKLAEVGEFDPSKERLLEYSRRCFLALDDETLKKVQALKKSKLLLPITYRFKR

| effect of a mutation on the interaction | Variant |
| --- | --- |
| with no effect | R23H |

Variants of: B5
Conditions: with eftu_human TUFM

| effect of a mutation on the interaction | Variant |
| --- | --- |
| with no effect | R23H |

Variants of: B5
Conditions: with xrcc4_human XRCC4, Q13426
xrcc4_human XRCC4, Q13426, sequence (Q13426 whole entry): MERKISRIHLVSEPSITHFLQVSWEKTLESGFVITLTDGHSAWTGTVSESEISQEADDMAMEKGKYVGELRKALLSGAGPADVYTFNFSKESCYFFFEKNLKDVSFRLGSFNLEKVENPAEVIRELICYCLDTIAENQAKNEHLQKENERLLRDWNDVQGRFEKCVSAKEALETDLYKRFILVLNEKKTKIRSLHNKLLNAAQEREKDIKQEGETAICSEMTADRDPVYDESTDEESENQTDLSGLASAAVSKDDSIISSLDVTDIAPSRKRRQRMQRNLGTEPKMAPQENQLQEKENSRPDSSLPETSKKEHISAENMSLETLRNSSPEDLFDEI

| effect of a mutation on the interaction | Variant |
| --- | --- |
| with no effect | R23H |

Variants of: B5
Conditions: with daxx_human DAXX

| effect of a mutation on the interaction | Variant |
| --- | --- |
| with no effect | R23H |

Variants of: B6
Conditions: with rusc1_human RUSC1, Q9BVN2

| effect of a mutation on the interaction | Variant |
| --- | --- |
| with no effect | R23H |
